This experiment concerns the target monomeric amyloid-β peptide 1–42 (Aβ42) (human, UniProt P05067 672-713). Put plainly: ITC.

Usually Kd stands for a measure of binding affinity in units of concentration. One may read the stoichiometry N as a count of units in the complex or per binding partner.

B1: S100B protein (natural protein)
chain: MSELEKAMVALIDVFHQYSGREGDKHKLKKSELKELINNELSHFLEEIKEQEVVDKVMETLDNDGDGECDFQEFMAFVAMVTTACHEFFEHE
Consider B1, for which the Kd stood at 590 ± 230 nM, the dH was -0.947 ± 0.0295 kcal/mol and the “stoichiometry N” value was 2.37 ± 0.07.

For the origin of these results see publication PMC6025902 (Science Advances, 2018).
